Source: PMC10690619 (Frontiers in Microbiology, 2023)

How the values were obtained:
[1] = molecular target: T1, cDPGS (Mf-cDPGS), cyclic 2,3-diphosphoglycerate synthetase (Methanothermus fervidus, UniProt O93732); experiment: HPLC-MS detection of product; format: biochemical; settings: 50 mM ATP, 250 mM 2,3-DPG, 50 mM MgCl2, 300 mM KCl, 25 mM Tris-HCl pH 8.0, 65 C, 60 min
T1 construct: gene cpgS; full length, 460 residues, N-terminal His6 tag (pLATE51, E. coli BL21(DE3), codon-optimised gene), homodimer ~100 kDa; apo structure solved from selenomethionine protein

[2] = molecular target: the molecule itself; experiment: SEC; calibrated Superdex 200 HiLoad 16/60, 20 mM Tris-HCl pH 7.5, 300 mM KCl, 1.0 mL/min, after Ni2+ affinity
[3] = molecular target: the molecule itself; experiment: crystal structure; ligand-free (apo) selenomethionine protein, space group I222, one protomer in the asymmetric unit, 1.7 Å, SAD; oligomeric state analysed with PISA

O=C(O)[C@H]1COP(=O)(O)OP(=O)(O)O1 [cDPG]
HPLC-MS detection of product [1]: The direct production of cDPG was monitored by HPLC–MS

B1: cyclic 2,3-diphosphoglycerate synthetase from Methanothermus fervidus, N-terminally His-tagged (enzyme, UniProt O93732 1-460, looked up)
chain: MGETKKMICLVDGEHYFPVVKDSIEILDDLEHIDVVAVVFIGGTEKLQIEDPKEYSEKLGKPVFFGPDPKKIPYDVIKKCVKKYNADIVMDLSDEPVVDYTKRFRIASIVLKEGAVYQGADFKFEPLTEYDVLEKPSIKIIGTGKRIGKTAVSAYAARVIHKHKYNPCVVAMGRGGPREPEIVEGNKIEITAEYLLEQADKGVHAASDHWEDALMSRILTVGCRRCGGGMLGDTFITNVKRGAEIANKLDSDFVIMEGSGAAIPPVKTNRQIVTVGANQPMININNFFGPFRIGLADLVIITMCEEPMATTEKIKKVEKFIKEINPSANVIPTVFRPKPVGNVEGKKVLFATTAPKVVVGKLVNYLESKYGCDVVGVTPHLSNRPLLRRDLKKYINKADLMLTELKAAAVDVATRVAIEAGLDVVYCDNIPVVIDESYGNIDDAIIEVVEMAIDDFKNNR
notes: cyclic 2,3-diphosphoglycerate synthetase (cDPGS), Methanothermus fervidus; E. coli codon-optimised gene in pLATE51; 460 protein residues in the structures, which hold the entire polypeptide chain (N-terminal domain of 127 amino acids, C-terminal domain residues 136-460); No removal of the His tag is told; also called cDPGS; Mf-cDPGS
stoichiometry N [2]: 2

B2: selenomethionine derivative of cyclic 2,3-diphosphoglycerate synthetase from Methanothermus fervidus (enzyme, UniProt O93732 1-460, looked up)
chain: MGETKKMICLVDGEHYFPVVKDSIEILDDLEHIDVVAVVFIGGTEKLQIEDPKEYSEKLGKPVFFGPDPKKIPYDVIKKCVKKYNADIVMDLSDEPVVDYTKRFRIASIVLKEGAVYQGADFKFEPLTEYDVLEKPSIKIIGTGKRIGKTAVSAYAARVIHKHKYNPCVVAMGRGGPREPEIVEGNKIEITAEYLLEQADKGVHAASDHWEDALMSRILTVGCRRCGGGMLGDTFITNVKRGAEIANKLDSDFVIMEGSGAAIPPVKTNRQIVTVGANQPMININNFFGPFRIGLADLVIITMCEEPMATTEKIKKVEKFIKEINPSANVIPTVFRPKPVGNVEGKKVLFATTAPKVVVGKLVNYLESKYGCDVVGVTPHLSNRPLLRRDLKKYINKADLMLTELKAAAVDVATRVAIEAGLDVVYCDNIPVVIDESYGNIDDAIIEVVEMAIDDFKNNR
modifications: selenomethionine in place of methionine
notes: cyclic 2,3-diphosphoglycerate synthetase (cDPGS), Methanothermus fervidus; same construct as m1, made with selenomethionine; 460 protein residues, the entire polypeptide chain seen in the structure; Used for the ligand-free structure (SAD phasing); One protomer in the asymmetric unit; the dimer lies on a crystallographic dyad; also called SeMet cDPGS; apo-cDPGS; source: E. coli, PASM-5052 auto …
binding result [3]: binds
